This test deals with PPP1CA(2-330), His6-MBP tag cleaved by TEV protease (human, UniProt P62136 2-330). Nature of the test: SEC. A general note: Size exclusion chromatography separates by hydrodynamic size, large species first.
Sequence of PPP1CA(2-330), His6-MBP tag cleaved by TEV protease (P62136 2-330): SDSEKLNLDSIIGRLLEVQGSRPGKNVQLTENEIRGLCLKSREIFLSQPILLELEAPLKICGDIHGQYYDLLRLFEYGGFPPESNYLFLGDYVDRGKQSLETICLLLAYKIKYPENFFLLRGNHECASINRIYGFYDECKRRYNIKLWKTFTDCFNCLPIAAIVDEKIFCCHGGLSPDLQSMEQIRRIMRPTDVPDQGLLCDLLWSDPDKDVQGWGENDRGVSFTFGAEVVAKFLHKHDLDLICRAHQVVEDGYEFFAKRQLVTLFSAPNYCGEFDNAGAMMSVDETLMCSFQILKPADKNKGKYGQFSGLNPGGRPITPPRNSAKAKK

B1: SHOC2, native full-length (natural protein, human, UniProt Q9UQ13 1-582, looked up)
chain: MSSSLGKEKDSKEKDPKVPSAKEREKEAKASGGFGKESKEKEPKTKGKDAKDGKKDSSAAQPGVAFSVDNTIKRPNPAPGTRKKSSNAEVIKELNKCREENSMRLDLSKRSIHILPSSIKELTQLTELYLYSNKLQSLPAEVGCLVNLMTLALSENSLTSLPDSLDNLKKLRMLDLRHNKLREIPSVVYRLDSLTTLYLRFNRITTVEKDIKNLSKLSMLSIRENKIKQLPAEIGELCNLITLDVAHNQLEHLPKEIGNCTQITNLDLQHNELLDLPDTIGNLSSLSRLGLRYNRLSAIPRSLAKCSALEELNLENNNISTLPESLLSSLVKLNSLTLARNCFQLYPVGGPSQFSTIYSLNMEHNRINKIPFGIFSRAKVLSKLNMKDNQLTSLPLDFGTWTSMVELNLATNQLTKIPEDVSGLVSLEVLILSNNLLKKLPHGLGNLRKLRELDLEENKLESLPNEIAYLKDLQKLVLTNNQLTTLPRGIGHLTNLTHLGLGENLLTHLPEEIGTLENLEELYLNDNPNLHSLPFELALCSKLSIMSIENCPLSHLPPQIVAGGPSFIIQFLKMQGPYRAMV
For B1, the stoichiometry N (commonly the number of molecules, sites or subunits per partner or assembly) was found to be 1.

(Values after paper PMC8881745 (Protein expression and purification, 2022).)
